The source of these data is patent US20260078171A1.

Holding throughout (assay): BLI (Octet), Fab, monovalent
The target of assay [1] is SARS-CoV-2 Beta RBD (SARS-CoV-2).
Assay [2] has as its target SARS-CoV-2 Omicron BA.2 RBD (SARS-CoV-2).
In assay [3] the target is SARS-CoV-2 Omicron BA.1 spike S1 subunit (SARS-CoV-2).

B1: VYD222 Fab (Fab, V domains shown)
VH: EVQLVESGGGLVKPGGSLRLSCAASGFTFGSYEMNWVRQAPGKGLEWVSSISEDGYSTYYPDSLKGRFTISRDSAKNSLYLQMNSLRADDTAVYYCARDFGGDTAWAGTGFTYWGQGTLVTVSS
VL: QSVLTQPPSVSGAPGQRITISCTGSSSNIGAGYDVHWYQQLPGTAPKLLIYGSSSRNYGVPDRFSGSKSGTSASLAITGLQAEDEADYYCQSYDSDLGVLYTFGTGTKVTVL
Take B1: the Kd in assay [1] was determined as 1.74 nM; in assay [2], 13.5 nM; in assay [3] it was 18.1 nM.
